Data taken from patent US20180155451A1 (published 2018).

Experiments:
Experiment in all cases: SPR (Biacore) KD ratio against the template H240-Kn061/H240-Hl071/L73-k0
[1] = molecular target: T1, FcgRIIIa V extracellular domain with C-terminal His tag (human, UniProt P08637 17-208)
T1 construct: extracellular domain; also called FcγRIIIa V; FcγRIIIa (V158); not shown: His tag attached to the C terminus
Procedure: (§1) The antibodies were assessed for the binding to each FcgR. […] The resultant value was defined as relative KD, and used as an assessment indicator.
(§2) Analysis of interaction between obj ective antibody and the FcγR was carried out using Biacore T100 (GE Healthcare), Biacore T200, Biacore A100, and Biacore 4000. HBS-EP+ (GE Healthcare) was used as the running buffer, and the measurement temperature was set to 25° C. Chips produced by immobilizing the antigen peptide by the amine coupling method to a Series S sensor Chip CM5 (GE Healthcare), chips produced by allowing preliminarily biotinylated antigen peptides to interact with and immobilize onto a Series S Sensor Chip SA (certified) (GE Healthcare), chips produced by immobilizing Protein L (ACTIGEN, BioVision) to Series S Sencor Chip CM5 (GE Healthcare), or chips produced by immobilizing Protein A/G (Thermo Scientific) to Series S Sencor Chip CM5 (GE Healthcare) were used. Antibodies of interest were captured onto these chips, and allowed to interact to each FcγR diluted with running buffer.

[2] = molecular target: T2, FcgRIIb extracellular domain with C-terminal His tag (human, UniProt P31994 43-217)
T2 construct: extracellular domain; also called FcγRIIb; not shown: His tag attached to the C terminus
T2 sequence (looked up): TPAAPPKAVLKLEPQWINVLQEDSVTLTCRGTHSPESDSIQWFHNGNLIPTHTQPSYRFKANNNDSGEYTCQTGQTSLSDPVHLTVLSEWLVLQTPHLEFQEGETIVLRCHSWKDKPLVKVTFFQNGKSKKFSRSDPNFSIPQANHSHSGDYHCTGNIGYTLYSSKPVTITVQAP
Procedure: as §1, §2

[3] = molecular target: T3, FcgRIIIa F extracellular domain with C-terminal His tag (human, UniProt P08637 17-208)
T3 construct: extracellular domain; also called FcγRIIIa F; FcγRIIIa (F158); not shown: His tag attached to the C terminus
T3 sequence (P08637 17-208): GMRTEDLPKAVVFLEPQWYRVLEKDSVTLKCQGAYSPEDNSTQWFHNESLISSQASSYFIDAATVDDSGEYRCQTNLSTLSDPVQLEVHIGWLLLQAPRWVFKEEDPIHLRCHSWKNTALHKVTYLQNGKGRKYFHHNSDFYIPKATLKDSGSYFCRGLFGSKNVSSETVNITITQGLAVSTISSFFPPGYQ
Procedure: as §1, §2

[4] = molecular target: T4, FcgRIIa R extracellular domain with C-terminal His tag (human, UniProt P12318 34-217)
T4 construct: extracellular domain; also called FcγRIIa R; FcγRIIa type R; not shown: His tag attached to the C terminus
T4 sequence (looked up): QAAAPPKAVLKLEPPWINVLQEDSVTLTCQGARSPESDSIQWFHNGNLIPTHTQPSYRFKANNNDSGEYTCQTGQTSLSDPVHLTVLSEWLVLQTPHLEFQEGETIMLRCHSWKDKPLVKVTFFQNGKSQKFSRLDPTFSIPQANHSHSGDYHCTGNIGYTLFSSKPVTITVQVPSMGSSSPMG
Procedure: as §1, §2

[5] = molecular target: T5, FcgRIIa H extracellular domain with C-terminal His tag (human, UniProt P12318 34-217)
T5 construct: extracellular domain; also called FcγRIIa H; FcγRIIa type H; not shown: His tag attached to the C terminus
T5 sequence (looked up): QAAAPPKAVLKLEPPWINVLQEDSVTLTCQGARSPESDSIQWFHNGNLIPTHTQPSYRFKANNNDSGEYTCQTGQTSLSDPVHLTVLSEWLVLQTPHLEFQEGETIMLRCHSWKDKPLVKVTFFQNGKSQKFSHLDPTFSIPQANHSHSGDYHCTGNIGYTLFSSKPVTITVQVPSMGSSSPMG
Procedure: as §1, §2

T1 sequence (P08637 17-208 F176V): as the sequence (P08637 17-208) above, with F160V counted along it

B1: H240-Kn061/H240-Hl071/L73-k0 variant with Y235N introduced into H240-Kn061 (antibody, human IgG1, kappa)
heavy 1: QDQLVQSGAEVKKPGASVKVSCKASGFNIKDTYIQWVRQAPGQGLEWMGRIDPLRKQTKYREKFEGRVTITADTSTNTAYMELSSLRSEDTAVYYCVRSGREFDYWGQGTLVTVSSASTKGPSVFPLAPSSKSTSGGTAALGCLVKDYFPEPVTVSWNSGALTSGVHTFPAVLQSSGLYSLSSVVTVPSSSLGTQTYICNVNHKPSNTKVDKKVEPKSCDKTHTCPPCPAPEYNWGPSVFLFPPKPKDTLMISRTPEVTCVVVDVSDEDPEVKFNWYVDGVEVHNAKTKPREEQYNATYRVVSVLTVLHQDWLNGKEYKCKVSNKALPAPIEKTISKAKGQPREPQVCTLPPSRDELTKNQVSLWCLVKGFYPSDIAVEWESNGQPENNYKTTPPVLDSDGSFFLYSKLTVDKSRWQQGNVFSCSVMHEALHNHYTQKSLSLSP
heavy 2: QDQLVQSGAEVKKPGASVKVSCKASGFNIKDTYIQWVRQAPGQGLEWMGRIDPLRKQTKYREKFEGRVTITADTSTNTAYMELSSLRSEDTAVYYCVRSGREFDYWGQGTLVTVSSASTKGPSVFPLAPSSKSTSGGTAALGCLVKDYFPEPVTVSWNSGALTSGVHTFPAVLQSSGLYSLSSVVTVPSSSLGTQTYICNVNHKPSNTKVDKKVEPKSCDKTHTCPPCPAPELLGGPSVFLFPPKPKDTLMISRTPEVTCVVVDVSHEDPEVKFNWYVDGVEVHNAKTKPREEQYNSTYRVVSVLTVLHQDWLNGKEYKCKVSNDALPMPIEETISKAKGQPREPQVYTLPPSRCELTKNQVSLSCAVKGFYPSDIAVEWESNGQPENNYKTTPPVLDSDGSFFLVSKLTVDKSRWQQGNVFSCSVMHEALHNHYTQKSLSLSP
light: DIQMTQSPSSLSASVGDRVTITCRASQDIHKYIAWYQQKPGQAPRLLIQYTSTLQPGVPSRFSGSGSGTDYTFTISSLQPEDIATYYCLQYEQLRTFGGGTKVEIKRTVAAPSVFIFPPSDEQLKSGTASVVCLLNNFYPREAKVQWKVDNALQSGNSQESVTEQDSKDSTYSLSSTLTLSKADYEKHKVYACEVTHQGLSSPVTKSFNRGEC
notes: Point variant made with H240-Kn061/H240-Hl071/L73-k0 as template; position by EU numbering; also called H240-Kn061 Y235N
B1 was tested, and the “relative KD (KD of H240-Kn061/H240-Hl071/L73-k0 / KD of variant)” value [1] was 2, the “relative KD (KD of H240-Kn061/H240-Hl071/L73-k0 / KD of variant)” value [2] was 0.7 and the “relative KD (KD of H240-Kn061/H240-Hl071/L73-k0 / KD of variant)” value [3] was 1.3. The “relative KD (KD of H240-Kn061/H240-Hl071/L73-k0 / KD of variant)” value [4] was 1 and the “relative KD (KD of H240-Kn061/H240-Hl071/L73-k0 / KD of variant)” value [5] was 0.7.
